# Starred links: 1 amine or outer side, 2 acyl side, 3 side chain; linkers in the order of their positions; H or OH if unused. Positions of bridges follow the written chain, without caps; N, C: chain ends. Non-standard residues stand in square brackets, D forms with d. Primed or numbered codes have the meaning given here. No end group written: not given here. mXylyl(3) = bridging moiety between the two residues given in brackets; Tyr(OMe) = O-methyl tyrosine, COc1ccc(C[C@H](N[*:1])C(=O)[*:2])cc1; mXylyl″ = bridging moiety between the two marked residues; Trp(7-aza) = N[C@@H](Cc1c[nH]c2ncccc12)C(=O)O; mXylyl(4) = bridging moiety between residues; NMePhe(4-F) = CN[C@@H](Cc1ccc(F)cc1)C(=O)O; pXylyl = bridging moiety between residues; PEG2000 = polyethylene glycol, 2000 Da; Phe(4-F) = N[C@@H](Cc1ccc(F)cc1)C(=O)O; mXylylene = c1cc(C[*:1])cc(C[*:2])c1; oXylylene = c1ccc(C[*:2])c(C[*:1])c1; hPhe = N[C@@H](CCc1ccccc1)C(=O)O; Phg(2-OMe)′ = not defined here; dChg = N[C@@H](C(=O)O)C1CCCCC1; Chg = N[C@H](C(=O)O)C1CCCCC1; Phg = N[C@H](C(=O)O)c1ccccc1; Tle = CC(C)(C)[C@H](N)C(=O)O; NMeS = CN[C@@H](CO)C(=O)O; NMeA = CN[C@@H](C)C(=O)O; Nva = CCC[C@H](N)C(=O)O; Aib = CC(C)(N)C(=O)O; Sar = CNCC(=O)O
# Biological target: human C5 protein (human, UniProt P01031 19-673; P01031 678-1676)
# Experiment: cell-based or functional assay
row,Binder,"Avg. IC50, human hemolysis assay [nM]"
1,Ac-[Nva]C[Phg]T[Trp(7-aza)]QY[NMeS]AC[Nva]-NH2 (linker 2-10 via mXylyl(3)) [R3098],> 100000
2,Ac-[Nva][Nva]YEN[Tle]Y[Trp(7-aza)]EYP[Chg][Nva]K-NH2 (SMILES CCC[C@H](NC(C)=O)C(=O)N[C@@H](CCC)C(=O)N[C@@H](Cc1ccc(O)cc1)C(=O)N[C@@H](CCC(=O)O)C(=O)N[C@@H](CC(N)=O)C(=O)N[C@H](C(=O)N[C@@H](Cc1ccc(O)cc1)C(=O)N[C@@H](Cc1c[nH]c2ncccc12)C(=O)N[C@@H](CCC(=O)O)C(=O)N[C@@H](Cc1ccc(O)cc1)C(=O)N1CCC[C@H]1C(=O)N[C@H](C(=O)N[C@@H](CCC)C(=O)N[C@@H](CCCCN)C(N)=O)C1CCCCC1)C(C)(C)C) [R3072],26.9
3,"Ac-[Nva][Nva]YEN[Tle]Y[Trp(7-aza)]EYP[Chg][Nva]K (not fully specified (residue 14, C-terminus); printed as Ac-Nvl-Nvl-Y-E-N-Tbg-Y-azaTrp-E-Y-P-Chg-Nvl-K-(PEG2000) NH2; also: PEG2000 at C-terminal Lys (K-(PEG2000) NH2), attachment unclear) [R3077]",81.7
4,Ac-[Nva]C[Phg]T[Trp(7-aza)]EYSAC[Nva]-NH2 (linker 2-10 via mXylyl(3)) [R3084],> 100000
5,Ac-[Nva]C[Phg][Aib][Trp(7-aza)]EY[NMeS]HC[Nva]-NH2 (linker 2-10 via mXylyl(3)) [R3096],> 50000
6,Ac-YEN[Tle]Y[Trp(7-aza)]EY[Sar][Nva][NMeS]-NH2 (SMILES CCC[C@H](NC(=O)CN(C)C(=O)[C@H](Cc1ccc(O)cc1)NC(=O)[C@H](CCC(=O)O)NC(=O)[C@H](Cc1c[nH]c2ncccc12)NC(=O)[C@H](Cc1ccc(O)cc1)NC(=O)[C@@H](NC(=O)[C@H](CC(N)=O)NC(=O)[C@H](CCC(=O)O)NC(=O)[C@H](Cc1ccc(O)cc1)NC(C)=O)C(C)(C)C)C(=O)N(C)[C@@H](CO)C(N)=O) [R3006],267
7,Ac-[Nva]CKE[Phg]YC[NMeS][Tle]K[Trp(7-aza)]EY-NH2 (linker 2-7 via mXylyl″) [R3007],314
8,Ac-[Nva]C[Phg]T[Trp(7-aza)]NY[NMeS]AC[Nva]-NH2 (linker 2-10 via mXylyl(3)) [R3099],> 100000
9,Ac-[Nva]C[Phg]T[Trp(7-aza)]E[hPhe][NMeS]AC[Nva]-NH2 (linker 2-10 via mXylyl(3)) [R3095],> 50000
10,Ac-[Nva]C[Chg]T[Trp(7-aza)]EY[NMeS]HC[Nva]-NH2 (linker 2-10 via pXylyl) [R3058],> 10000
11,[Nva]CY[Tle][Phg]N[Sar]LC[Phg][NMeA]-NH2 (linker 2-9 via mXylyl(4)) [R3052],> 100000
12,Ac-VC[Phg]T[Trp(7-aza)]EY[NMeS]AC[Nva]-NH2 (linker 2-10 via mXylyl(3)) [R3083],> 25000
13,[Nva]CCN[Tle][Phg]C[Tle][NMeS]C[Tle]-NH2 (linker (positions not given here) via mXylylene; also: mXylyl bicyclo: linked cysteines not given here) [R3053],> 100000
14,Ac-[Nva]C[Phg]T[Trp(7-aza)]E[Tyr(OMe)][NMeS]HC[Nva]-NH2 (linker 2-10 via mXylyl(3)) [R3074],308
15,Ac-[Nva]C[Phg]T[Trp(7-aza)]EY[NMeS]HC[Nva]-NH2 (linker 2-10 via oXylylene; SMILES CCC[C@H](NC(=O)[C@@H]1CSCc2ccccc2CSC[C@H](NC(=O)[C@H](CCC)NC(C)=O)C(=O)N[C@@H](c2ccccc2)C(=O)N[C@@H]([C@@H](C)O)C(=O)N[C@@H](Cc2c[nH]c3ncccc23)C(=O)N[C@@H](CCC(=O)O)C(=O)N[C@@H](Cc2ccc(O)cc2)C(=O)N(C)[C@@H](CO)C(=O)N[C@@H](Cc2c[nH]cn2)C(=O)N1)C(N)=O) [R3049],> 3100
16,Ac-[Nva]C[Phg]T[Trp(7-aza)]EY[NMeS]C[Nva]-NH2 (linker 2-9 via mXylyl(3)) [R3080],> 50000

row,Binder,"Avg. IC50, human hemolysis assay [nM]"
1,Ac-[Nva]CFT[Trp(7-aza)]EY[NMeS]AC[Nva]-NH2 (linker 2-10 via mXylyl(3)) [R3090],> 100000
2,[Nva]CY[NMeS][Phg][NMePhe(4-F)][NMeS]H[NMePhe(4-F)]GC-NH2 (linker 2-11 via mXylyl(3)) [R3075],> 75000
3,Ac-[Nva]C[dChg]T[Trp(7-aza)]EY[NMeS]AC[Nva]-NH2 (linker 2-10 via mXylyl(3)) [R3093],> 100000
4,Ac-[Nva]CY[Trp(7-aza)][Sar][Tle][Nva][Trp(7-aza)]EYP[Phg]P-NH2 (SMILES CCC[C@H](NC(C)=O)C(=O)N[C@@H](CS)C(=O)N[C@@H](Cc1ccc(O)cc1)C(=O)N[C@@H](Cc1c[nH]c2ncccc12)C(=O)N(C)CC(=O)N[C@H](C(=O)N[C@@H](CCC)C(=O)N[C@@H](Cc1c[nH]c2ncccc12)C(=O)N[C@@H](CCC(=O)O)C(=O)N[C@@H](Cc1ccc(O)cc1)C(=O)N1CCC[C@H]1C(=O)N[C@H](C(=O)N1CCC[C@H]1C(N)=O)c1ccccc1)C(C)(C)C) [R3005],66.7
5,Ac-[Chg]C[Phg]T[Trp(7-aza)]EY[NMeS]AC[Nva]-NH2 (linker 2-10 via mXylyl(3)) [R3089],> 15000
6,[Nva]CY[NMeS][Phg][NMePhe(4-F)][NMeS]H[NMePhe(4-F)][Sar]C-NH2 (linker 2-11 via mXylyl(4)) [R3051],> 100000
7,"MCVERFCD[Tle]Y[Trp(7-aza)]EYP[Phg][Nva]-NH2 (linker 2-7 via mXylyl(4); not fully specified; printed as [mXylyl(2,7)]M-C-V-E-R-F-C-D-Tbg-Y-azaTrp-E-Y-P-Phg-Nvl-NH2) [R3057]",12.4
8,Ac-[Nva]SYEC[Tle]Y[Trp(7-aza)]EYP[Chg]C[Nva]-NH2 (linker 5-13 via mXylyl(3)) [R3086],> 50000
9,Ac-[Nva]C[Phg(2-OMe)′]T[Trp(7-aza)]EY[NMeS]HC[Nva]-NH2 (linker 2-10 via mXylyl(3)) [R3087],> 25000
10,PEG2000-[Nva][Nva]YEN[Tle]Y[Trp(7-aza)]EYP[Phg][Nva]-NH2 [R3078],568
11,Ac-[Nva]C[Phg]T[Trp(7-aza)]EYPHC[Nva]-NH2 (linker 2-10 via pXylyl) [R3065],394
12,Ac-[Nva]CYNN[Tle]E[Trp(7-aza)]EYP[Phg][Tle]-NH2 (SMILES CCC[C@H](NC(C)=O)C(=O)N[C@@H](CS)C(=O)N[C@@H](Cc1ccc(O)cc1)C(=O)N[C@@H](CC(N)=O)C(=O)N[C@@H](CC(N)=O)C(=O)N[C@H](C(=O)N[C@@H](CCC(=O)O)C(=O)N[C@@H](Cc1c[nH]c2ncccc12)C(=O)N[C@@H](CCC(=O)O)C(=O)N[C@@H](Cc1ccc(O)cc1)C(=O)N1CCC[C@H]1C(=O)N[C@H](C(=O)N[C@H](C(N)=O)C(C)(C)C)c1ccccc1)C(C)(C)C) [R3004],53.5
13,Ac-[Nva]C[Phg]T[Trp(7-aza)]DY[NMeS]AC[Nva]-NH2 (linker 2-10 via mXylyl(3)) [R3097],> 100000
14,Ac-[Nva]C[Phg]T[Trp(7-aza)]E[Phe(4-F)][NMeS]HC[Nva]-NH2 (linker 2-10 via mXylyl(3)) [R3073],403
15,VVYENGYWEYPGVK (Ac-Nvl-Nvl-Y-E-N-Tbg-Y-azaTrp-E-Y-P-Chg-Nvl-K-(BODIPY-TMR-X) NH2) [R3076],297
16,Ac-[Nva]C[Phg]T[Trp(7-aza)]EY[NMeS]HC[Nva]-NH2 (linker 2-10 via pXylyl) [R3050],42.9

# From patent US20210283212A1 (RA PHARMACEUTICALS, published 2021)
